According to patent publication US20220041715A1:
Read-outs that look alike come from different tables or passages of the source.

Key:
[1] = biological target: SARS-CoV-2 receptor binding domain (RBD) (SARS-CoV-2) (UniProt P0DTC2); test: ELISA
HCoV-NL63 S1 (HCoV-NL63) = HCoV-NL63 S1 (HCoV-NL63) (UniProt Q6Q1S2); test: ELISA
SARS CoV RBD (SARS-CoV) = SARS CoV RBD (SARS-CoV) (UniProt P59594); test: ELISA
[2] = biological target: SARS-CoV-2 spike S1 (SARS-CoV-2) (UniProt P0DTC2); test: ELISA
MERS CoV S1 (MERS CoV) = MERS CoV S1 (MERS CoV) (UniProt K9N5Q8); test: ELISA
HCoV-229E S1 (HCoV-229E) = HCoV-229E S1 (HCoV-229E) (UniProt P15423); test: ELISA
[3] = biological target: SARS-CoV-2 receptor binding domain (RBD) (SARS-CoV-2) (UniProt P0DTC2); test: ELISA; remark: listed apart in the source
[4] = biological target: SARS-CoV-2 receptor binding domain (RBD) (SARS-CoV-2) (UniProt P0DTC2); test: RBD:ACE2 blocking ELISA (RBD coated, ACE2-His)
[5] = biological target: SARS-CoV-2 spike on GFP reporter pseudotype virus (Wuhan-Hu-1) (SARS-CoV-2) (UniProt P0DTC2); test: cell-based or functional assay

Substance	EC50 [1]	peak OD signal [1]	EC50 (HCoV-NL63 S1 (HCoV-NL63))	EC50 (SARS CoV RBD (SARS-CoV))	EC50 [2]	peak OD signal [2]	EC50 (MERS CoV S1 (MERS CoV))	EC50 (HCoV-229E S1 (HCoV-229E))	EC50 [3]	IC50 [4]	CoV-2 pseudotype neutralization IC50 [5]
IVIG (Gamunex; Grifols) (antibody)	1270 µg/mL	2.26 OD	140 µg/mL	1280 µg/mL	1410 µg/mL	1.99 OD	1330 µg/mL	96 µg/mL	1250 µg/mL		
rCIG (recombinant coronavirus-2 immune globulin; recombinant anti-coronavirus 19 hyperimmune gammaglobulin) (antibody)	0.1 µg/mL			0.6 µg/mL	0.092 µg/mL					2.2 µg/mL	0.43 µg/mL
